According to the supplement of paper PMC9876800:

Test system: peptide library, one residue held at a place counted from the S/T acceptor
Test: relative phosphorylation of the sub-library (ratio to the mean residue at this position); human; higher = residue favoured
Method in brief: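 Purified recombinant kinases, either human or orthologue constructs, were incubated in 384-well plates with biotinylated degenerate peptide sub-libraries. Each sub-library fixed one residue at one position around a central Ser/Thr. Peptides at 50 μM and 50 μM ATP spiked with γ-32P-ATP were used for 90 min under kinase-specific conditions, and spots on streptavidin membranes were phosphorimaged and quantified by densitometry. Relative sub-library phosphorylation is expressed as a ratio to the mean residue at that position.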

Chain of CSNK1A1L, construct: Full length (Q8N752 whole entry, looked up): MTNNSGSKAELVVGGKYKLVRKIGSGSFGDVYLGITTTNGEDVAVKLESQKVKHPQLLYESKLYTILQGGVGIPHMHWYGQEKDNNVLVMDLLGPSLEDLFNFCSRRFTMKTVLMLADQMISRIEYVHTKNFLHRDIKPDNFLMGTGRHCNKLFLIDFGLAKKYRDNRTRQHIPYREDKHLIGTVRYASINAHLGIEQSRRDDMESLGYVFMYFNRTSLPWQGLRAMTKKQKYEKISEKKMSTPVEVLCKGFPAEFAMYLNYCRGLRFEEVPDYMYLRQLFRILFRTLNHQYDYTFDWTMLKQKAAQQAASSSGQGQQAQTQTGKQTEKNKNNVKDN
Chain of CLK3, construct: Full length (P49761 whole entry, looked up): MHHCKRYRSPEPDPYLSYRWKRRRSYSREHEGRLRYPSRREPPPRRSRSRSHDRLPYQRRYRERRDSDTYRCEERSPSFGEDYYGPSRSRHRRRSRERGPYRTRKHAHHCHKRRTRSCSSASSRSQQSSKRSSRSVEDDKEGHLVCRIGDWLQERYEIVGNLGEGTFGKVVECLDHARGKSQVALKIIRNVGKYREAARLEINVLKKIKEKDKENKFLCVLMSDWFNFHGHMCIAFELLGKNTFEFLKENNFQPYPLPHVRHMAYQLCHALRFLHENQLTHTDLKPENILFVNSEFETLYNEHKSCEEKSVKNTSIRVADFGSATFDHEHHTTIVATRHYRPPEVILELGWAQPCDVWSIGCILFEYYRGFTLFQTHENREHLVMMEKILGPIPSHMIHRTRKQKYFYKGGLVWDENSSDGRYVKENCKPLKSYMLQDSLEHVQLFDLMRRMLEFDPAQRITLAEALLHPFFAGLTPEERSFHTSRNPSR

CLK3, construct: Full length (from UniProt P49761)
relative phosphorylation
Details | at +1 | at +2 | at +3 | at +4 | at -1 | at -2 | at -3 | at -4 | at -5
A fixed | 0.914 | 1.22 | 0.84 | 1.18 | 0.969 | 1.52 | 0.79 | 0.812 | 1.06
D fixed | 0.555 | 1.69 | 0.683 | 1.62 | 0.872 | 1.26 | 1.43 | 1.4 | 1.87
E fixed | 1.27 | 1.91 | 0.622 | 1.34 | 0.915 | 1.8 | 1.19 | 1.38 | 1.04
F fixed | 0.282 | 0.536 | 0.348 | 0.694 | 0.306 | 0.342 | 0.339 | 0.516 | 0.773
G fixed | 0.984 | 0.987 | 0.917 | 0.938 | 1.03 | 1.35 | 0.853 | 1.1 | 0.928
H fixed | 0.735 | 0.971 | 1.07 | 0.869 | 0.799 | 0.732 | 0.607 | 0.885 | 0.899
I fixed | 0.382 | 0.381 | 0.47 | 0.681 | 0.203 | 0.33 | 0.282 | 0.417 | 0.523
K fixed | 2.02 | 1.6 | 3.25 | 2.08 | 2.62 | 1.33 | 2.38 | 1.38 | 1.53
L fixed | 0.478 | 0.506 | 0.438 | 0.748 | 0.376 | 0.307 | 0.31 | 0.492 | 0.599
M fixed | 0.659 | 0.574 | 0.424 | 0.724 | 0.405 | 0.39 | 0.359 | 0.613 | 0.492
N fixed | 1.06 | 1.03 | 1.1 | 0.885 | 1.55 | 0.853 | 0.779 | 0.961 | 0.846
P fixed | 4.92 | 1.69 | 1.81 | 0.963 | 2.15 | 1.9 | 1.76 | 1.87 | 0.949
Q fixed | 0.983 | 0.898 | 0.707 | 1.01 | 1.62 | 0.904 | 0.852 | 0.996 | 0.973
R fixed | 0.409 | 1.35 | 2.93 | 1.1 | 2.1 | 2.72 | 3.78 | 2.05 | 2.05
V fixed | 0.619 | 0.52 | 0.457 | 0.796 | 0.367 | 0.432 | 0.436 | 0.535 | 0.735
W fixed | 0.368 | 0.628 | 0.483 | 0.732 | 0.37 | 0.39 | 0.457 | 0.879 | 1.07
Y fixed | 0.368 | 0.517 | 0.439 | 0.649 | 0.348 | 0.435 | 0.403 | 0.704 | 0.674
pThr fixed | 0.887 | 2.44 | 0.951 | 2.16 | 0.555 | 0.817 | 1.05 | 1.27 | 1.12
pTyr fixed | 1.23 | 0.956 | 0.877 | 1.3 | 1.1 | 0.87 | 0.997 | 1.05 | 0.98

CSNK1A1L, construct: Full length (from UniProt Q8N752)
relative phosphorylation
Details | at +1 | at +2 | at +3 | at +4 | at -1 | at -2 | at -3 | at -4 | at -5
A fixed | 0.971 | 1.06 | 1.06 | 1.04 | 1.09 | 1.69 | 0.946 | 0.941 | 0.921
D fixed | 0.691 | 0.714 | 0.868 | 0.854 | 0.749 | 0.716 | 1.06 | 0.888 | 0.771
E fixed | 0.871 | 0.578 | 0.9 | 0.871 | 0.977 | 0.991 | 2.26 | 1.1 | 0.78
F fixed | 0.886 | 1.12 | 1.17 | 1.05 | 0.872 | 0.81 | 0.784 | 0.965 | 1.27
G fixed | 0.849 | 0.885 | 1.07 | 0.992 | 1.21 | 0.819 | 0.778 | 0.948 | 0.897
H fixed | 0.744 | 0.98 | 0.899 | 0.858 | 0.896 | 0.748 | 0.734 | 0.933 | 0.985
I fixed | 1.87 | 1.66 | 1.19 | 1.03 | 0.879 | 0.847 | 0.965 | 1.13 | 1.1
K fixed | 0.883 | 1.02 | 0.845 | 1.09 | 1.2 | 1.35 | 1.13 | 1.24 | 1.27
L fixed | 1.19 | 0.964 | 1.07 | 1.11 | 1.01 | 0.903 | 0.811 | 1.08 | 1.09
M fixed | 1.03 | 1.02 | 1.17 | 1.08 | 1.13 | 0.839 | 0.751 | 0.96 | 1.09
N fixed | 0.745 | 0.702 | 0.795 | 0.777 | 0.997 | 0.798 | 0.704 | 0.96 | 0.874
P fixed | 0.719 | 0.705 | 0.904 | 1.1 | 1.02 | 1.19 | 0.741 | 0.873 | 0.874
Q fixed | 0.801 | 0.731 | 0.808 | 0.913 | 0.878 | 0.889 | 0.685 | 0.865 | 0.807
R fixed | 1.25 | 1.03 | 0.801 | 0.897 | 1.54 | 2.1 | 2.08 | 1.15 | 1.18
V fixed | 1.88 | 1.38 | 1.14 | 1.02 | 0.854 | 0.889 | 0.813 | 0.956 | 0.925
W fixed | 0.769 | 1.06 | 1.16 | 1.24 | 0.754 | 0.681 | 0.656 | 0.946 | 0.928
Y fixed | 0.854 | 1.4 | 1.15 | 1.07 | 0.94 | 0.737 | 1.09 | 1.08 | 1.25
pThr fixed | 1.69 | 0.803 | 1.25 | 1.64 | 2.06 | 3.58 | 53.8 | 5.13 | 1.56
pTyr fixed | 1.26 | 2.63 | 3.97 | 2.06 | 1.5 | 1.78 | 2.99 | 4.32 | 1.93
